From US20110236874A1, “METHOD FOR FORMATION OF RENAL TUBULES” (priority 2008, published 2011)
Entries after “also recorded” stand apart in the source; their conditions may differ.

Legend:
[1] = tested on: primary human renal proximal tubule cells (HPTCs); assay: α-SMA immunostaining (myofibroblasts) in HPTC cultures on ECM coatings; format: cell-based; settings: BMP-7 100 ng/ml constantly in the medium
Procedure: Immunostaining, histochemistry, and imaging: Immunostaining was performed as described in Sadoni et al. J Cell Biol 1999; 146(6): 1211-1226. The following primary antibodies were used: rabbit anti-ZO-1 (zonula occludens-1, Invitrogen, Carlsbad, Calif., USA) and mouse anti-α-smooth muscle actin (SMA) (Abcam, Cambridge, UK). Alexa Fluor 488-conjugated anti-rabbit (Invitrogen) and TRITC-conjugated anti-mouse (Invitrogen) secondary antibodies were applied. After immunostaining, cell nuclei were stained with DAPI and cells were mounted with vectashield (Vector Laboratories, Burlingame, Calif.) for microscopy. Histochemical detection of γGTP activity and controls were performed as described in Ryan et al. Kidney Int 1994; 45(1):48-57. Imaging was performed with a Zeiss AxioObserver Z1 microscope (Carl Zeiss, Jena, Germany) using the Zeiss AXIOVISION™ imaging software.
Disintegration of tight junctions after a certain time point is indicated. […]
Based on these observations, the question arose why the monolayer always disintegrated and could not be maintained for longer periods. […] Therefore, the presence of α-SMA-positive cells was monitored in the final experimental series. α-SMA is expressed in myofibroblasts but not in epithelial cells, and was detected in these experiments together with ZO-1 by co-immunostaining (FIG. 2).

[2] = tested on: primary human renal proximal tubule cells (HPTCs); assay: Quantification of α-SMA expression by immunoblotting; format: cell-based; settings: HPTCs on laminin + collagen IV treated with BMP-7 100 ng/ml; control uncoated TCP; FIG. 3
Procedure: Immunoblotting: For immunoblotting, cells were lyzed in 100 μl of heated NuPage LDS sample buffer (Invitrogen). Samples were collected, heated at 95° C. and centrifuged at 10,000 g for 2 minutes to pellet cell debris. Protein concentrations of the supernatants were measured with a NANODROP™ spectrophotometer (Biofrontier, Singapore). Appropriate amounts of the supernatants were loaded onto a NuPage precast gel (4-12%, Invitrogen) with the size marker PAGE Ruler Plus (Fermentas, Hanover, Md., USA). Proteins were transferred to iBlot membranes after electrophoresis. […]
After washing, the membranes were incubated with 0.2 μl/ml of both peroxidase-conjugated sheep anti-mouse antibody and donkey anti-rabbit antibody. […] The films were scanned and analyzed using Adobe Photoshop CS3.
FIG. 3. Quantification of α-SMA expression by immunoblotting. […] Proteins were extracted in each case from 3 replicas, and the extract obtained from each sample was loaded onto a separate lane of the gel. α-SMA (lower bands, 42 kD) and α-tubulin (loading control, upper bands, 50 kD) were detected by immunoblotting. […] (B) The intensities of the bands shown in (A) were determined. […]

B1: BMP-7: Bone morphogenetic protein (BMP)-7 (Sigma), added at 100 ng/ml (protein, UniProt P18075 293-431, looked up)
Bone morphogenetic protein 7: STGSKQRSQNRSKTPKNQEALRMANVAENSSSDQRQACKKHELYVSFRDLGWQDWIIAPEGYAAYYCEGECAFPLNSYMNATNHAIVQTLVHFINPETVPKPCCAPTQLNAISVLYFDDSSNVILKKYRNMVVRACGCH
appearance of α-SMA-expressing cells and tight junction formation [1]: high numbers of α-SMA-expressing cells, associated with poor formation of tight junctions
α-SMA expression by immunoblotting (ratio to α-tubulin) versus control [2]: significant differences compared to the control; also recorded: significantly (p 0.002) higher
